One series concerns the target T1, TcCGT1 (Trollius chinensis, UniProt A0A4Y5RXX8).
T1 sequence (A0A4Y5RXX8 2-483): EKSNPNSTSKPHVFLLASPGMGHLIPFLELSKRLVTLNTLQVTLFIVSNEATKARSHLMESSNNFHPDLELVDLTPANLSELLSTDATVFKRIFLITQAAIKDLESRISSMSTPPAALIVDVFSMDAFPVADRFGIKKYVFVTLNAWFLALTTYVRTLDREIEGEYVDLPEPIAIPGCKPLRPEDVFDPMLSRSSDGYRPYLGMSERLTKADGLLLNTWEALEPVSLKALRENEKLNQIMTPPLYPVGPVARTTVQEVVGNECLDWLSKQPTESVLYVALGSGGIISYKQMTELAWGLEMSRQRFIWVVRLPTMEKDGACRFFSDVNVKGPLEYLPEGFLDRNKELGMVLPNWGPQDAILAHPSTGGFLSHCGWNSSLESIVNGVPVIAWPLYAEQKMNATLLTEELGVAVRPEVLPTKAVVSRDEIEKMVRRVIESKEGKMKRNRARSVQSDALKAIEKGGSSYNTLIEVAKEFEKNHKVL
The series is described as follows: HPLC end-point turnover to O- and C-glucosides. The class given is biochemical. The following applies: 50 μM aloesone, 200 μM UDP-Glc, 50 mM HEPES, pH 7.4, 30 °C, overnight.

Substrate in series [1]: CC(=O)Cc1cc(=O)c2c(C)cc(O)cc2o1
Briefly: HPLC initial rates of O-glucoside formation, Michaelis-Menten fit. The class given is biochemical, Arabidopsis thaliana. The following applies: 0.8 mM UDP-Glc, 50 mM HEPES, 50 mM NaCl, pH 7.4.

Consider `CC(=O)Cc1cc(=O)c2c(C)cc(O)cc2o1` [aloesone, 2-acetonyl-7-hydroxy-5-methylchromone], for which, on TcCGT1, the “HPLC end-point turnover to O- and C-glucosides” value is “both C-and O-glucosides were detected in the reaction with TcCGT1”.

B1: UGT71C1 (Arabidopsis thaliana) (protein)
chain: GKQEDAELVIIPFPFSGHILATIELAKRLISQDNPRIHTITILYWGLPFIPQADTIAFLRSLVKNEPRIRLVTLPEVQDPPPMELFVEFAESYILEYVKKMVPIIREALSTLLSSRDESGSVRVAGLVLDFFCVPMIDVGNEFNLPSYIFLTCSAGFLGMMKYLPERHREIKSEFNRSFNEELNLIPGYVNSVPTKVLPSGLFMKETYEPWVELAERFPEAKGILVNSYTALEPNGFKYFDRCPDNYPTIYPIGPILCSNDRPNLDSSERDRIITWLDDQPESSVVFLCFGSLKNLSATQINEIAQALEIVDCKFIWSFRTNPKEYASPYEALPHGFMDRVMDQGIVCGWAPQVEILAHKAVGGFVSHCGWNSILESLGFGVPIATWPMYAEQQLNAFTMVKELGLALEMRLDYVSEDGDIVKADEIAGTVRSLMDGVDVPKSKVKEIAEAGKEAVDGGSSFLAVKRFIGDLIDGVSISK
For orientation: Km means the substrate concentration at which the rate is half of its maximum. The kcat is the number of substrate molecules converted per active site and unit of time at saturation. Usually kcat/Km stands for the turnover number divided by the Michaelis constant. As to B1, in series [1], the Km is 50.54 ± 7.29 µM, the kcat came out at 0.27 ± 0.01 s⁻¹ and the kcat/Km is 5000 M⁻¹ s⁻¹.
